Experimental data from patent US6379950 (THOMAS JEFFERSON UNIVERSITY, dated 2002).
fmk = not defined here

T1: C-terminus of lamin A, P02545
T1 chain: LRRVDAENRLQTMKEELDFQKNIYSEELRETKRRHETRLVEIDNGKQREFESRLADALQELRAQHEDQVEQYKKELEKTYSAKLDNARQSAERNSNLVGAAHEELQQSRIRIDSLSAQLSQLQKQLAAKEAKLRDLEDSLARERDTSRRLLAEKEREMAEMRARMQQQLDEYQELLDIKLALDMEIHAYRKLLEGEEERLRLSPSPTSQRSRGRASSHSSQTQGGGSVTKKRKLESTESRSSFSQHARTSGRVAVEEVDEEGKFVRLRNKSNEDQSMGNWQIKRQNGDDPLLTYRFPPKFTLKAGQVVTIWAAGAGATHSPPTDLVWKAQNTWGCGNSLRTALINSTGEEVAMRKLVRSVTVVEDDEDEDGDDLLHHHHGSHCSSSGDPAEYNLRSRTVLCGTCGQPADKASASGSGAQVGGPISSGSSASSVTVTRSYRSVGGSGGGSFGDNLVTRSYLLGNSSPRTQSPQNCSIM

T2: rev-caspase-3 (human, UniProt P42574 1-175, limits assumed)
T2 sequence: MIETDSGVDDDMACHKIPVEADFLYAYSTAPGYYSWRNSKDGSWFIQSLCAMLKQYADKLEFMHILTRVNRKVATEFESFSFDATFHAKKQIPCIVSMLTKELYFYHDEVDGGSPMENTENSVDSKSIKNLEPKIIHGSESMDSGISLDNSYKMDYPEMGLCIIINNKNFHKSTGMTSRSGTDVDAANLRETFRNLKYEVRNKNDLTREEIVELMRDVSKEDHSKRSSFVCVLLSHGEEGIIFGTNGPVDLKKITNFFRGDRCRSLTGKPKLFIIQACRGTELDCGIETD


Key:
[1] = molecular target: T1, C-terminus of lamin A, P02545
[2] = molecular target: poly(ADP) ribose polymerase (PARP), P09874
rev-caspase-3 = molecular target: T2, rev-caspase-3; test: cell-based or functional assay

Chain of poly(ADP) ribose polymerase (PARP), P09874 (P09874 whole entry, looked up): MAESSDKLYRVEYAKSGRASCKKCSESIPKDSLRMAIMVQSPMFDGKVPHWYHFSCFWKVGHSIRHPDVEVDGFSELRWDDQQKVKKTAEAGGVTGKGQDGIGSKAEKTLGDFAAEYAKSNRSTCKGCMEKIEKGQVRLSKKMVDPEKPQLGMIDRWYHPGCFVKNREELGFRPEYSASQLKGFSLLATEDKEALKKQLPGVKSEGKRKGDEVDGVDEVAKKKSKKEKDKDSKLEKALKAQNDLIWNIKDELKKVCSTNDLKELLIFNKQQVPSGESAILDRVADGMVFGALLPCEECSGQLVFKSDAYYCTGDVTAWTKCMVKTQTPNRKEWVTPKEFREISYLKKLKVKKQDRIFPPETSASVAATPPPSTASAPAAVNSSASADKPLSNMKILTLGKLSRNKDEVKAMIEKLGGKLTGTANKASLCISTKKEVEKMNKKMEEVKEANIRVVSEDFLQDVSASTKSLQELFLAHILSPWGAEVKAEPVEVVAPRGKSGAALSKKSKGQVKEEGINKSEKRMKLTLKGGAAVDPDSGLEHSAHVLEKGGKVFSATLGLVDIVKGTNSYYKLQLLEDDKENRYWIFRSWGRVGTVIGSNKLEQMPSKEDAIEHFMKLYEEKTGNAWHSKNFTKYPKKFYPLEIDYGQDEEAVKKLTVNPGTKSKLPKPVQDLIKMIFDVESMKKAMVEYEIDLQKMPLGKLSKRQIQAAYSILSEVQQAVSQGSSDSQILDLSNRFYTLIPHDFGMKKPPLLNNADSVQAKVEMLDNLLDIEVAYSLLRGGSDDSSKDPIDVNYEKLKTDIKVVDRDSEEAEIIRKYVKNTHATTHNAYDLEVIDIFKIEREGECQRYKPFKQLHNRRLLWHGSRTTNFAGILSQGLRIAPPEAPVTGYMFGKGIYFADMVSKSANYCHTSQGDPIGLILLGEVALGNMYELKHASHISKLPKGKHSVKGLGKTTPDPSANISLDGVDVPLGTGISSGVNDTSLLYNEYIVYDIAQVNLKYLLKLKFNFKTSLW

Row | amount of inhibitor required for complete inhibition, relative to DEVD-CHO (rev-caspase-3) [fold] | Binder | substrate cleavage (bacterial extract incubated with 35S-labelled lamin A C-terminus, autoradiography) [1] | substrate cleavage (bacterial extract incubated with purified PARP, Western blot) [2]
1 |  | rev-caspase-6 (protein) MVEIDAASVYTLPAGADFLMCYSVAEGYYSHRETVNGSWYIQDLCEMLGKYGSSLEFTELLTLVNRKVSQRRVDFCKDPSAIGKKQVPCFASMLTKKLHFFPKSNLEHHHHHHVEIDGGSPMSSASGLRRGHPAGGEENMTETDAFYKREMFDPAEKYKMDHRRRGIALIFNHERFFWHLTLPERRGTCADRDNLTRRFSDLGFEVKCFNDLKAEELLLKIHEVSTVSHADADCFVCVFLSHGEGNHIYAYDAKIEIQTLTGLFKGDKCHSLVGKPKIFIIQACRGNQHDVPVIPLDVVD | both caspase-6 variants, but not caspase-3 variants efficiently cleaved lamin | Both caspase-3 variants (rev and WT), but not caspase-6 variants efficiently cleaved PARP
2 |  | caspase-6 (wild type) (protein) MSSASGLRRGHPAGGEENMTETDAFYKREMFDPAEKYKMDHRRRGIALIFNHERFFWHLTLPERRGTCADRDNLTRRFSDLGFEVKCFNDLKAEELLLKIHEVSTVSHADADCFVCVFLSHGEGNHIYAYDAKIEIQTLTGLFKGDKCHSLVGKPKIFIIQACRGNQHDVPVIPLDVVDNQTEKLDTNITEVDAASVYTLPAGADFLMCYSVAEGYYSHRETVNGSWYIQDLCEMLGKYGSSLEFTELLTLVNRKVSQRRVDFCKDPSAIGKKQVPCFASMLTKKLHFFPKSN | both caspase-6 variants, but not caspase-3 variants efficiently cleaved lamin | Both caspase-3 variants (rev and WT), but not caspase-6 variants efficiently cleaved PARP
3 | ~10 | {code z}-Val-Ala-Asp-fmk (reading uncertain; also: printed as z-VAD-fmk) [z-VAD-fmk] |  | 
4 |  | caspase-3 (wild type) (protein) MENTENSVDSKSIKNLEPKIIHGSESMDSGISLDNSYKMDYPEMGLCIIINNKNFHKSTGMTSRSGTDVDAANLRETFRNLKYEVRNKNDLTREEIVELMRDVSKEDHSKRSSFVCVLLSHGEEGIIFGTNGPVDLKKITNFFRGDRCRSLTGKPKLFIIQACRGTELDCGIETDSGVDDDMACHKIPVDADFLYAYSTAPGYYSWRNSKDGSWFIQSLCAMLKQYADKLEFMHILTRVNRKVATEFESFSFDATFHAKKQIPCIVSMLTKELYFYH | both caspase-6 variants, but not caspase-3 variants efficiently cleaved lamin | Both caspase-3 variants (rev and WT), but not caspase-6 variants efficiently cleaved PARP
5 |  | rev-caspase-3 (protein) MIETDSGVDDDMACHKIPVEADFLYAYSTAPGYYSWRNSKDGSWFIQSLCAMLKQYADKLEFMHILTRVNRKVATEFESFSFDATFHAKKQIPCIVSMLTKELYFYHDEVDGGSPMENTENSVDSKSIKNLEPKIIHGSESMDSGISLDNSYKMDYPEMGLCIIINNKNFHKSTGMTSRSGTDVDAANLRETFRNLKYEVRNKNDLTREEIVELMRDVSKEDHSKRSSFVCVLLSHGEEGIIFGTNGPVDLKKITNFFRGDRCRSLTGKPKLFIIQACRGTELDCGIETD | both caspase-6 variants, but not caspase-3 variants efficiently cleaved lamin | Both caspase-3 variants (rev and WT), but not caspase-6 variants efficiently cleaved PARP
